The values that follow come from publication PMC7480105, “Wbox2: A clathrin terminal domain–derived peptide inhibitor of clathrin-mediated endocytosis” (The Journal of Cell Biology, 2020).

No end group written: not given here.

Format in all cases: cell-based
Experiment [1] deals with TfnR uptake via CME in ARPE/HPV cells. Nature of the experiment: TfnR uptake (in-cell ELISA) after peptide preincubation. The settings on record: 60-min preincubation with peptide at 37°C, concentration curves, n = 4 replicates (Fig. 7 F), read-out: IC50 for inhibition of TfnR uptake. The method, then: Peptides encoding the TAT sequence (YGRKKRRQRRR) followed by 10 amino acid sequences covering the four reported binding sites on the clathrin terminal domain (Fig. 7 A) were synthesized by GenScript (Piscataway, NJ) with >95% purity. Peptides were dissolved in dH2O and further diluted in PBS4+ (1× PBS buffer plus 0.2% BSA, 1 mM CaCl2, 1 mM MgCl2, and 5 mM D-glucose) or cell culture medium (for imaging) when applied to cells. Peptide solutions were stored at −20°C.
Internalization of TfnR, CD44, CD59, and Biotin-Tfn was quantified by in-cell ELISA following established protocols ([Conner and Schmid, 2003]; [Srinivasan et al., 2018]). Cells were seeded in 96-well plates (Costar) at 60–70% confluence and grown overnight. Before the assay, cells were starved for 30 min in PBS4+ at 37°C or treated with peptides in PBS4+ at 37°C for the indicated times. After starvation, cells were moved to 4°C, and culture medium was replaced with cold PBS4+ containing 5 µg/ml HTR-D65 (anti-TfnR mAb; [Schmid and Smythe, 1991]), anti-human CD44 or anti-human CD59 (BD PharMingen) or 5 µg/ml Biotin-Tfn (Sigma-Aldrich). For single-round assays, the above reagents were kept with cells for 20 min at 4°C and then washed out before uptake assay. For multiround assays, the above reagents were kept with cells throughout the uptake process. In parallel, some cells were kept at 4°C for the measurement of surface-bound ligands and blank controls, and some were incubated in a 37°C water bath for the indicated times. Acid wash (0.2 M acetic acid and 0.2 M NaCl, pH 2.3) was used to remove surface-bound antibodies, followed by washing with cold PBS. All were fixed with 4% PFA (Electron Microscopy Sciences) in PBS for 30 min at 37°C. 0.1% Triton X-100 was added for 6.5 min to permeabilize cells, followed by addition of blocking buffer. HTR-D65–, CD44-, and CD59-treated cells were blocked with Q-PBS (PBS, 2% BSA, 0.1% lysine, and 0.01% saponin, pH 7.4), and Biotin-Tfn–treated cells were blocked with 2% casein. Surface-bound and internalized HTR-D65, CD44, and CD59 were probed with goat anti-mouse antibody conjugated with HRP (Sigma-Aldrich), and Biotin-Tfn was probed with Streptavidin-POD conjugate (Sigma-Aldrich). Color was developed using o-phenylenediamine dihydrochloride (OPD) solution (Sigma-Aldrich), and absorbance was read at 490 nm (Biotek Synergy H1 Hybrid Reader). Cell number variation among wells was accounted for by bicinchoninic acid assay reading at 562 nm.
(In general: ELISA stands for enzyme-linked immunosorbent assay.)

A further experiment has as its system Tfn recycling. Briefly: Biotin-Tfn recycling assay. The settings on record: TDD expression (0 ng/ml Tet), ARPE/HPV cells, 10- or 30-min pulse (Fig. 2 D). The method, then: Biotin-Tfn recycling was conducted according to previous protocols ([Chen et al., 2017]). Cells were cultured in biotin-free medium for 48 h, seeded in 96-well plates (Costar) at 60–70% confluence, and grown overnight. Before assay, cells were starved for 45 min in PBS4+ at 37°C or treated with peptides in PBS4+ at 37°C for the indicated times. After starvation, cells were supplied with 100 µl of 5 µg/ml Biotin-Tfn in PBS4+ for 10 or 30 min to load Biotin-Tfn into cells. When loading was complete, cells were cooled down to 4°C and washed with PBS4+ to remove extra Biotin-Tfn. Some cells were kept at 4°C as loading controls. The remaining cells were first treated with avidin and biocytin to mask the surface-bound Biotin-Tfn, and then incubated at 37°C for the indicated times. All the cells were then acid washed and fixed with 4% PFA as above. Blocking steps were the same as for the Biotin-Tfn uptake assay. Data were expressed as percentage of total intracellular ligand remaining relative to the initial load.

Experiment [2] concerns TfnR uptake in ARPE cells. Nature of the experiment: TfnR uptake with TDD overexpression (Tet-off adenovirus). The note with it: maximum TDD expression, adenovirus-infected ARPE cells, n = 4 replicates (Fig. 2 C). The method, then:
TDD, TD, and tTA adenoviruses were applied to cells directly in culture medium. Pilot experiments were conducted to optimize the volumes of each virus preparation need for uniform infection (Fig. S1, A and B). Experiments were conducted after 12–18 h, allowing for adequate viral infection and protein expression. Protein expression could be regulated by adjusting Tet concentration. All experiments were performed in the absence of Tet, allowing for maximum protein expression, except for Fig. 1, A–C.
(§1) Internalization of TfnR, CD44, CD59, and Biotin-Tfn was quantified by in-cell ELISA following established protocols ([Conner and Schmid, 2003]; [Srinivasan et al., 2018]). Cells were seeded in 96-well plates (Costar) at 60–70% confluence and grown overnight. Before the assay, cells were starved for 30 min in PBS4+ at 37°C or treated with peptides in PBS4+ at 37°C for the indicated times. After starvation, cells were moved to 4°C, and culture medium was replaced with cold PBS4+ containing 5 µg/ml HTR-D65 (anti-TfnR mAb; [Schmid and Smythe, 1991]), anti-human CD44 or anti-human CD59 (BD PharMingen) or 5 µg/ml Biotin-Tfn (Sigma-Aldrich). […] Color was developed using o-phenylenediamine dihydrochloride (OPD) solution (Sigma-Aldrich), and absorbance was read at 490 nm (Biotek Synergy H1 Hybrid Reader). Cell number variation among wells was accounted for by bicinchoninic acid assay reading at 562 nm.

Experiment [3] concerns fluid phase uptake of HRP in ARPE/HPV cells. Briefly: Fluid-phase uptake of HRP. The settings on record: TDD expression (0 ng/ml Tet), ARPE/HPV cells (Fig. 2 E). The method, then: Fluid-phase uptake assays were conducted using HRP (Sigma-Aldrich) as the readout. Cells were seeded in 96-well plates (Costar) at 60–70% confluence and grown overnight. Before assay, cell culture medium was changed to PBS4+ and cooled down to 4°C. Ice-cold HRP solution (1 mg/ml) was added to cells and moved to a 37°C water bath for 30 min. In parallel, some cells were kept at 4°C as blank control. All the cells were acid washed (0.2 M acetic acid and 0.2 M NaCl, pH 2.3) and lysed with ELISA blocking buffer (1% Triton X-100, 0.1% SDS, 0.2% BSA, 50 mM NaCl, and 1 mM Tris, pH 7.4) for 1 h at 4°C. Color was developed using OPD solution (Sigma-Aldrich), and absorbance was read at 490 nm (Biotek Synergy H1 Hybrid Reader).

In the next experiment the test system is ARPE/HPV eGFP-CLCa cells. Nature of the experiment: TIRFM CCP dynamics with TDD/TD overexpression. The note with it: TIRFM and cmeAnalysis (Fig. 3 C, Fig. 4 C). The method, then:
Cells were seeded on a gelatin-coated 22 × 22–mm cover glass (Corning; 2850-22) overnight and moved to fresh cell culture medium 30 min before being mounted on a 25 × 75–mm slide (Thermo Fisher Scientific; 3050). Imaging was conducted with a 60×, 1.49-NA Apo TIRF objective (Nikon) mounted on a Ti-Eclipse inverted microscope. Perfect focus was used during time-lapse imaging. TIRF penetration depth was ∼80 nm. Videos were acquired for 7.5 min at the rate of 1 frame/s for all live-cell imaging. For dual-color imaging, two sequential images of primary and secondary channel were taken within 1 s, and the video length was the same as single-channel imaging. Published cmeAnalysis software was used for CCP detection, tracking, and quantification ([Aguet et al., 2013]; [Jaqaman et al., 2008]; [Loerke et al., 2011]).

In experiment [4] the test system is CD59 uptake in ARPE/HPV cells. Briefly: CD59 uptake (clathrin-independent endocytosis marker). The settings on record: TDD expression (0 ng/ml Tet), ARPE/HPV cells (Fig. 2 F). The method, then:
as §1, with “(Sigma-Aldrich). For single-round assays, the above reagents were kept with cells for 20 min at 4°C and then washed out before uptake assay. For multiround assays, the above reagents were kept with cells throughout the uptake process. In parallel, some cells were kept at 4°C for the measurement of surface-bound ligands and blank controls, and some were incubated in a 37°C water bath for the indicated times.” for “(Sigma-Aldrich).”

Experiment [5] relates to CD44 uptake in ARPE/HPV cells. Briefly: CD44 uptake (clathrin-independent endocytosis marker). The note with it: TDD expression (0 ng/ml Tet), ARPE/HPV cells (Fig. 2 F). The method, then: as §1, with “(Sigma-Aldrich). For single-round assays, the above reagents were kept with cells for 20 min at 4°C and then washed out before uptake assay. For multiround assays, the above reagents were kept with cells throughout the uptake process. In parallel, some cells were kept at 4°C for the measurement of surface-bound ligands and blank controls, and some were incubated in a 37°C water bath for the indicated times.” for “(Sigma-Aldrich).”

Experiment [6] relates to association of AP2 with the membrane pellet, ARPE cells. Nature of the experiment: Subcellular fractionation, AP2 in membrane pellet. The note with it: cells with TDD overexpression, n = 3; control cells 59 ± 14% (Fig. 5 E). The method, then: Confluent ARPE or ARPE/HPV cells in a 10-cm dish were detached with 3 ml of 50 mM EDTA at 37°C for 10 min. Extra EDTA after detachment was neutralized with 0.2 ml of 1 M MgCl2. Cells were then spun down at 500 g for 3 min and washed with cold PBS. After another spin to remove PBS, cells were resuspended in 0.5 ml ice-cold lysis buffer (25 mM Hepes, 250 mM sucrose, 1 mM MgCl2, and 2 mM EGTA, pH 7.4). Cells were then lysed by five rounds of freeze–thaw cycle (rapid freezing in liquid nitrogen and slow thawing in room temperature water bath, followed by brief vortex and 10-s sonication). Intact cells and nuclei were removed by centrifugation for 2 min at 500 g. 0.1 ml of lysed sample was kept as total control, and the rest (0.4 ml) underwent ultracentrifugation at 4°C for 30 min at 110,000 g to separate membranes (pellet) from cytosol (supernatant). Supernatant was transferred to another low binding Eppendorf, and the pellet was resuspended with the same volume of lysis buffer (0.4 ml). Total, pellet, and supernatant were heat denatured in 1× sample buffer and probed by Western blotting.

In general, IC50 refers to the concentration that inhibits the measured activity by half. With YGRKKRRQRRRKAGKTLQIFN [Cbox1], the IC50 in experiment [1] was approximately 60 µM.

For YGRKKRRQRRRKTLQIFKSKI [Cbox2], the IC50 in experiment [1] was more than 100 µM.

Consider YGRKKRRQRRRLAGCQIINYR [Wbox1], for which the IC50 in experiment [1] was approximately 3 µM.

B1: TDD: clathrin heavy chain fragment (residues 1–1,074): N-terminal domain plus distal leg, overexpressed by Tet-off adenovirus (protein)
chain: MAQILPIRFQEHLQLQNLGINPANIGFSTLTMESDKFICIREKVGEQAQVVIIDMNDPSNPIRRPISADSAIMNPASKVIALKAGKTLQIFNIEMKSKMKAHTMTDDVTFWKWISLNTVALVTDNAVYHWSMEGESQPVKMFDRHSSLAGCQIINYRTDAKQKWLLLTGISAQQNRVVGAMQLYSVDRKVSQPIEGHAASFAQFKMEGNAEESTLFCFAVRGQAGGKLHIIEVGTPPTGNQPFPKKAVDVFFPPEAQNDFPVAMQISEKHDVVFLITKYGYIHLYDLETGTCIYMNRISGETIFVTAPHEATAGIIGVNRKGQVLSVCVEEENIIPYITNVLQNPDLALRMAVRNNLAGAEELFARKFNALFAQGNYSEAAKVAANAPKGILRTPDTIRRFQSVPAQPGQTSPLLQYFGILLDQGQLNKYESLELCRPVLQQGRKQLLEKWLKEDKLECSEELGDLVKSVDPTLALSVYLRANVPNKVIQCFAETGQVQKIVLYAKKVGYTPDWIFLLRNVMRISPDQGQQFAQMLVQDEEPLADITQIVDVFMEYNLIQQCTAFLLDALKNNRPSEGPLQTRLLEMNLMHAPQVADAILGNQMFTHYDRAHIAQLCEKAGLLQRALEHFTDLYDIKRAVVHTHLLNPEWLVNYFGSLSVEDSLECLRAMLSANIRQNLQICVQVASKYHEQLSTQSLIELFESFKSFEGLFYFLGSIVNFSQDPDVHFKYIQAACKTGQIKEVERICRESNCYDPERVKNFLKEAKLTDQLPLIIVCDRFDFVHDLVLYLYRNNLQKYIEIYVQKVNPSRLPVVIGGLLDVDCSEDVIKNLILVVRGQFSTDELVAEVEKRNRLKLLLPWLEARIHEGCEEPATHNALAKIYIDSNNNPERFLRENPYYDSRVVGKYCEKRDPHLACVAYERGQCDLELINVCNENSLFKSLSRYLVRRKDPELWGSVLLESNPYRRPLIDQVVQTALSETQDPEEVSVTVKAFMTADLPNELIELLEKIVLDNSVFSEHRNLQNLLILTAIKADRTRVMEYINRLDNYDAPDIANIAISNELFEEAFAIFRK
modifications: left off: HA, N-terminal, kept
notes: clathrin heavy chain fragment (residues 1–1,074): N-terminal domain plus distal leg, overexpressed by Tet-off adenovirus
Consider B1, for which the “recycling of Tfn” value with Tfn recycling was “not significantly perturbed”. In experiment [2], the “inhibition of endocytic efficiency of TfnR” value was determined as 80%. Also, the “fluid phase uptake (HRP)” value in experiment [3] is recorded as “not significantly inhibited”. For the same molecule, the CCP initiation entry with ARPE/HPV eGFP-CLCa cells is recorded as “dramatically decreased”. For the same molecule, the “CD59 uptake (CIE)” value in experiment [4] is reported as “not significantly inhibited”. Moreover, the “CD44 uptake (CIE)” value in experiment [5] was “not significantly inhibited”. The “association of AP2 with the membrane pellet” value in experiment [6] was found to be 76 ± 14%.

B2: TD: clathrin heavy chain N-terminal domain, generated by mutating T495 to a stop codon in TDD (protein, UniProt Q00610 1-494, looked up, fragment)
chain: MAQILPIRFQEHLQLQNLGINPANIGFSTLTMESDKFICIREKVGEQAQVVIIDMNDPSNPIRRPISADSAIMNPASKVIALKAGKTLQIFNIEMKSKMKAHTMTDDVTFWKWISLNTVALVTDNAVYHWSMEGESQPVKMFDRHSSLAGCQIINYRTDAKQKWLLLTGISAQQNRVVGAMQLYSVDRKVSQPIEGHAASFAQFKMEGNAEESTLFCFAVRGQAGGKLHIIEVGTPPTGNQPFPKKAVDVFFPPEAQNDFPVAMQISEKHDVVFLITKYGYIHLYDLETGTCIYMNRISGETIFVTAPHEATAGIIGVNRKGQVLSVCVEEENIIPYITNVLQNPDLALRMAVRNNLAGAEELFARKFNALFAQGNYSEAAKVAANAPKGILRTPDTIRRFQSVPAQPGQTSPLLQYFGILLDQGQLNKYESLELCRPVLQQGRKQLLEKWLKEDKLECSEELGDLVKSVDPTLALSVYLRANVPNKVIQCFAE
modifications: HA tag
notes: clathrin heavy chain N-terminal domain, generated by mutating T495 to a stop codon in TDD
Regarding B2, the CCP initiation result in the experiment with ARPE/HPV eGFP-CLCa cells was “sufficient to suppress”.
